Article PMC6558041

Assays:
[1] = target: hemolysin B (HlyB), ABC transporter of the HlyA type I secretion system (E. coli) (UniProt P08716)
[2] = target: HlyB∆CLD, truncated HlyB lacking the N-terminal C39 peptidase-like domain (E. coli)
[3] = target: hemolysin B (HlyB), ABC transporter of the HlyA type I secretion system (E. coli) (UniProt P08716); remark: listed apart in the source

Chain of UniProt P08716 (P08716 whole entry, the tested form may be a part): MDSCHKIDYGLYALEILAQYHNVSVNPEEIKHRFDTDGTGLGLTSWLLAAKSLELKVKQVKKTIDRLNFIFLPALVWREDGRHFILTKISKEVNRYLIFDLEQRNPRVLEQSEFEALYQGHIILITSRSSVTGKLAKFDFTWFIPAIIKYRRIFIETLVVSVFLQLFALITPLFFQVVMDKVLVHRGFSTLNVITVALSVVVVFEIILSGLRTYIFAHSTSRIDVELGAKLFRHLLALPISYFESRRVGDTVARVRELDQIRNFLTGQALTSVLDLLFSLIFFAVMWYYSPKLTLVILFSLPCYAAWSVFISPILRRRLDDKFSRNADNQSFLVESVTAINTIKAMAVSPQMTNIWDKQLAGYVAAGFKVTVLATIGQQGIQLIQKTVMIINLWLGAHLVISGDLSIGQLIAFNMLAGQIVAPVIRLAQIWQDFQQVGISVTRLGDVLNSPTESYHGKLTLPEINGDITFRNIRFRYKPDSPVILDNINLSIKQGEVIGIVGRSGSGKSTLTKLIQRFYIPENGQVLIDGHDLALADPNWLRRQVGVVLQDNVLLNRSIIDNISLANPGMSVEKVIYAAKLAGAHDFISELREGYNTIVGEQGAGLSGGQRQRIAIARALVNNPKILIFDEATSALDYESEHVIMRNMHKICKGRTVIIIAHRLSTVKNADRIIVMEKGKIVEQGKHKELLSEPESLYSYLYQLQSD

Substance: proHlyA, full-length hemolytically inactive (non-acylated) precursor form of hemolysin A (from UniProt P08715 1-1024) (natural protein)
- inhibition of the basal ATPase activity of HlyB reconstituted with LPC/DOPC mixtures or LPC alone in saposin-A nanoparticles, with 10 µM unfolded proHlyA [1]: 40%
- stimulation of the basal ATPase activity of HlyB∆CLD in LPC-saposin-A nanoparticles by folded proHlyA, 0-10 µM (Michaelis-Menten fit with substrate inhibition) [2]: 2 fold
- stimulation of the basal ATPase activity of HlyB∆CLD in LPC-saposin-A nanoparticles by unfolded proHlyA, 0-10 µM, with strong substrate inhibition at higher concentrations [2]: 4 fold
- inhibition of the basal ATPase activity of HlyB in LPC-saposin-A nanoparticles by unfolded proHlyA, 0-10 µM, 4 mM ATP, 25 °C [3]: 30%
- stimulation of ATP hydrolysis of HlyB in LPC-saposin-A nanoparticles by folded proHlyA (Ca2+), 0-10 µM, 4 mM ATP, 25 °C [3]: 60%
